Laboratory results published in the RNAGym collection of RNA variant scans (doi:10.7554/elife.90254).

B1: OR4K15 (parent)
chain: GUUAACGGUCAUAGGCCAUGGAAACUAGGAGCACCAUUUCGCUGCCAGUGAAGAAAUGAACAAAGAAAAUCUGGGCCAGGCAGGCAUCAAAAGAAAUAGUCUUGCGCUCAACCAGAAAGUCUGUAAUCAUUUUAAGGGUA

Variants of: B1
Assay: self-cleavage, relative activity (ratio to wild type); higher = more cleavage; in vitro, sequencing; the parent is a self-cleaving ribozyme

Compared with A95G U122A, G65C A89U is higher in self-cleavage: 1.78 for the first, 2.04 for the second.

Compared with A111C A140G, U49C A134U is higher in self-cleavage: 0.01 for the first, 1.2 for the second.

Compared with A11G U124A, U9A C88U is higher in self-cleavage: 0.66 for the first, 0.82 for the second.

Going from A23G A91G to U3G U37C, the self-cleavage rises from 0.7 to 1.52.

Going from A64G A118U to A94U U102C, the self-cleavage rises from 0.97 to 1.36.

Compared with A22U A62U, U122C U131C is lower in self-cleavage: 1.58 for the first, 1.13 for the second.

Going from G21A G138A to A55U U131C, the self-cleavage rises from 0.84 to 2.

First: U38C U120A
Second: A47G A63U
The self-cleavage of the first is higher: 1.76 for the first, 1.03 for the second.

Going from C46U A117G to U19C C76U, the self-cleavage falls from 2.01 to 0.14.

First: C32U A78G
Second: C32U U38C
The self-cleavage of the first is lower: 0.53 for the first, 1.02 for the second.

Compared with U133C A135U, A56G A90G is lower in self-cleavage: 1.71 for the first, 1.03 for the second.

Going from G29A U139G to A60G A95U, the self-cleavage rises from 0.86 to 0.97.

First: A89C A134G
Second: A96G A134G
The self-cleavage of the first is lower: 1.16 for the first, 1.81 for the second.

Going from A69C A96U to A11G C121A, the self-cleavage rises from 0.68 to 1.62.

Compared with A23C A30G, A66U U122G is higher in self-cleavage: 0.62 for the first, 2.33 for the second.

Compared with A66U U120G, A24G A62G is higher in self-cleavage: 1.14 for the first, 1.27 for the second.

Compared with A52G U102A, A94U U130C is higher in self-cleavage: 0.89 for the first, 1.01 for the second.

First: A11G U103C
Second: A86C C109U
The self-cleavage of the first is higher: 0.95 for the first, 0.25 for the second.

First: A13G U108A
Second: A22C
The self-cleavage of the first is lower: 0.12 for the first, 1.11 for the second.

Going from U103C A116U to G20C, the self-cleavage rises from 0.23 to 1.88.

Going from A24G G29U to U3C G119U, the self-cleavage falls from 1.2 to 0.99.

Going from C35G A59G to A30G U72A, the self-cleavage falls from 1.58 to 0.36.

First: A126C U132G
Second: A60G A135U
The self-cleavage of the first is lower: 0.89 for the first, 1.41 for the second.

First: A24C A27G
Second: U37A U108C
The self-cleavage of the first is higher: 1.25 for the first, 0 for the second.

Compared with U108A A116G, A63G U133C is higher in self-cleavage: 0.01 for the first, 1.18 for the second.

Compared with U39C A125G, A110G G138U is lower in self-cleavage: 0.66 for the first, 0.13 for the second.

First: A78G U127G
Second: A66G A134G
The self-cleavage of the first is lower: 0.27 for the first, 1.66 for the second.

Going from G1A A64G to A47G A78U, the self-cleavage falls from 2.27 to 0.14.

First: A30C A68G
Second: A47G U87C
The self-cleavage of the first is higher: 0.67 for the first, 0.42 for the second.

Compared with A5U A126U, U12A A90G is higher in self-cleavage: 0 for the first, 0.57 for the second.

Compared with U102A A135G, A67G A125U is lower in self-cleavage: 1.02 for the first, 0.11 for the second.

Going from A51G C77U to U70C U124C, the self-cleavage falls from 1.46 to 0.27.

Going from A27G A90U to A52G G79A, the self-cleavage falls from 1 to 0.27.

Going from A95G A125U to U102C A125G, the self-cleavage rises from 0.96 to 1.5.

Compared with U130C A140G, U37C A78G is lower in self-cleavage: 1 for the first, 0.26 for the second.

Going from A24G A51C to A5G U132A, the self-cleavage falls from 0.87 to 0.6.

First: U49C A114G
Second: U132C G138U
The self-cleavage of the first is lower: 0.42 for the first, 1.54 for the second.

First: A59U A78C
Second: U9G A117G
The self-cleavage of the first is lower: 0.4 for the first, 2.41 for the second.

Going from G44A C77U to U49C A60G, the self-cleavage falls from 2.17 to 1.24.

First: U100A A111G
Second: A62U A66G
The self-cleavage of the first is lower: 0.02 for the first, 1.58 for the second.

Going from A54G A90G to A30G A96G, the self-cleavage rises from 0.86 to 1.25.

Compared with G74A A96G, C109U U130C is higher in self-cleavage: 0.24 for the first, 0.35 for the second.

First: U87C U103C
Second: A18U U38A
The self-cleavage of the first is lower: 0.95 for the first, 1.02 for the second.

Compared with A82C A135G, A51U A62G is higher in self-cleavage: 0.15 for the first, 1.48 for the second.

First: A11U U97C
Second: G8A U70C
The self-cleavage of the first is lower: 0.56 for the first, 1.22 for the second.

Going from A5G G65A to U108C A125U, the self-cleavage falls from 0.9 to 0.01.

Going from A86U A117U to A5U U130C, the self-cleavage falls from 1.56 to 0.85.

Compared with U37C A114U, A23G G50U is higher in self-cleavage: 0.15 for the first, 0.79 for the second.

Going from U127C U131C to A33U U72C, the self-cleavage falls from 0.51 to 0.3.

First: C42U A60G
Second: G73U A78U
The self-cleavage of the first is higher: 1.17 for the first, 0.15 for the second.

Going from A33G U87C to U19C A60G, the self-cleavage rises from 0.7 to 1.23.

First: A4G G14A
Second: U3G A51G
The self-cleavage of the first is lower: 1.05 for the first, 1.72 for the second.

First: A36G G79A
Second: A11G C61G
The self-cleavage of the first is lower: 0.1 for the first, 1 for the second.

Compared with C40A A67G, G74A U122A is lower in self-cleavage: 1.7 for the first, 0.18 for the second.

Going from G44C C46A to C35U A110G, the self-cleavage falls from 1.19 to 0.14.

First: U72C U122A
Second: A18G A62G
The self-cleavage of the first is lower: 0.09 for the first, 1.54 for the second.

First: A125U A134G
Second: U49C A68U
The self-cleavage of the first is lower: 1.48 for the first, 1.95 for the second.

Going from A67G U133C to A33U A134G, the self-cleavage rises from 1.12 to 1.2.

First: A33G U39C
Second: A52G A54G
The self-cleavage of the first is lower: 0.8 for the first, 1.41 for the second.

Going from A36C U43C to A18G A52U, the self-cleavage falls from 1.24 to 1.21.

First: A13U U122A
Second: A33G C34A
The self-cleavage of the first is higher: 1.5 for the first, 1.19 for the second.

Going from U130C U131A to A114G U127A, the self-cleavage rises from 0.25 to 0.47.

First: U19C C121A
Second: U2C C45G
The self-cleavage of the first is higher: 2.88 for the first, 1.29 for the second.

First: A56G U100C
Second: A18U U39G
The self-cleavage of the first is higher: 2.18 for the first, 0.98 for the second.

First: A36U U127C
Second: A68G U131C
The self-cleavage of the first is lower: 0.93 for the first, 0.99 for the second.

Compared with U122C C128A, U70C U133C is higher in self-cleavage: 0.38 for the first, 0.98 for the second.

Going from U43A U132A to A11U G75C, the self-cleavage falls from 1.41 to 0.16.

First: A89G U139C
Second: U26C A54G
The self-cleavage of the first is lower: 1.02 for the first, 1.61 for the second.

First: A47G U139A
Second: A22U A116G
The self-cleavage of the first is higher: 1.4 for the first, 0.96 for the second.

Going from A18G A116G to A33C A89G, the self-cleavage rises from 1.17 to 1.31.

Compared with G7U A135U, A51G A86C is lower in self-cleavage: 2.23 for the first, 0.65 for the second.

First: U43A A90G
Second: U39A U100C
The self-cleavage of the first is lower: 0.76 for the first, 2.25 for the second.

Compared with A89U U133C, A30U C81U is lower in self-cleavage: 1.97 for the first, 0.51 for the second.

Compared with U9C A140G, G53U A66U is higher in self-cleavage: 1.33 for the first, 1.77 for the second.

First: A5G A63G
Second: G14C A59G
The self-cleavage of the first is lower: 1.21 for the first, 1.46 for the second.

Compared with A33C A47G, G1A A13C is higher in self-cleavage: 1.05 for the first, 1.66 for the second.

Compared with A78U A111G, U3C A92G is higher in self-cleavage: 0.02 for the first, 1.48 for the second.

First: A30U A36U
Second: U43A A51U
The self-cleavage of the first is higher: 1.67 for the first, 1.28 for the second.

First: A30G A126U
Second: U102A U108C
The self-cleavage of the first is higher: 0.87 for the first, 0 for the second.

Compared with G8A U19A, C17U U87A is lower in self-cleavage: 1.92 for the first, 1.37 for the second.

Going from A116U A126U to G44U A95G, the self-cleavage rises from 0.21 to 1.73.

Going from A23G G115A to U19A A55G, the self-cleavage rises from 0.05 to 1.79.

Going from A116G U120C to A114U U124G, the self-cleavage falls from 0.27 to 0.06.

Variant U87A G137A has a self-cleavage of 1.96.
